3 molecules from PMC3750474 (2013) can be followed below.

Changes are numbered by the printed parent chain. Names and notes keep the numbering of the source.

For assay [1], the target named is T1, FIV N-terminal capsid domain (feline immunodeficiency virus (FIV)).
T1 chain: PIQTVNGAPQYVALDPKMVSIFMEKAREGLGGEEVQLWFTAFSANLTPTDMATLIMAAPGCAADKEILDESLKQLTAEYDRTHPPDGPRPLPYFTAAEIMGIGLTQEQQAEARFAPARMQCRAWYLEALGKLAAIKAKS
Description: ITC. (Isothermal titration calorimetry measures the heat released or taken up as one component is titrated into another.)

In assay [2] the target is HIV-1 M-group (NL4-3) N-terminal capsid domain (HIV-1 M-group (NL4-3)). Description: ITC.

As a reminder, the Kd is the constant that tells how readily two partners part at equilibrium. Low values mean tighter binding, high ones weaker binding.

B1: cyclophilin domain from human NUP358 (domain or fragment)
chain: ELSKETNPVVFFDVCADGEPLGRITMELFSNIVPRTAENFRALCTGEKGFGFKNSIFHRVIPDFVCQGGDITKHDGTGGQSIYGDKFEDENFDVKHTGPGLLSMANQGQNTNNSQFVITLKKAEHLDFKHVVFGFVKDGMDTVKKIESFGSPKGSVCRRITITECGQI
Consider B1, for which, in assay [1], the Kd stood at 290 µM.

B2: NUP358Cyp V113F (domain or fragment)
chain: B1 chain with V117F
In assay [2], B2 came in with a dissociation constant Kd of 92 µM.

B3: NUP358Cyp V61M/V113F (domain or fragment)
chain: B1 chain with V65M, V117F
As to B3, the Kd in assay [2] was determined as 31 µM.
